Publication PMC5912465

Biological target: T1, human CCL8 (residues Gln-24 to Pro-99), expressed in E. coli (human), P80075
T1 chain: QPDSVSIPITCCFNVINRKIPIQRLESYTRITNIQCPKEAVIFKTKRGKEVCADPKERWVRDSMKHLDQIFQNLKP
Experiment: native MS; CCL8 alone in 200 mM ammonium acetate pH 6.5; modified Q Exactive, capillary voltage 1.2 kV, source temperature 100 °C
Settings: remark: other sources report otherwise

B1: human CCL8 (residues Gln-24 to Pro-99), expressed in E. coli, P80075 24-99 (ligand)
chain: T1 chain
With B1 the stoichiometry N was 2.
